{"source": "paper PMC9760430", "about": "“A stapled chromogranin A-derived peptide homes in on tumors that express αvβ6 or αvβ8 integrins” (International Journal of Biological Sciences, 2023)", "origin": "cited, not measured here", "key": {"[1]": {"biological_target": "integrin αvβ8 (Homo sapiens) (UniProt P06756)", "sequence (P06756 31-992, chain 1 of 2)": "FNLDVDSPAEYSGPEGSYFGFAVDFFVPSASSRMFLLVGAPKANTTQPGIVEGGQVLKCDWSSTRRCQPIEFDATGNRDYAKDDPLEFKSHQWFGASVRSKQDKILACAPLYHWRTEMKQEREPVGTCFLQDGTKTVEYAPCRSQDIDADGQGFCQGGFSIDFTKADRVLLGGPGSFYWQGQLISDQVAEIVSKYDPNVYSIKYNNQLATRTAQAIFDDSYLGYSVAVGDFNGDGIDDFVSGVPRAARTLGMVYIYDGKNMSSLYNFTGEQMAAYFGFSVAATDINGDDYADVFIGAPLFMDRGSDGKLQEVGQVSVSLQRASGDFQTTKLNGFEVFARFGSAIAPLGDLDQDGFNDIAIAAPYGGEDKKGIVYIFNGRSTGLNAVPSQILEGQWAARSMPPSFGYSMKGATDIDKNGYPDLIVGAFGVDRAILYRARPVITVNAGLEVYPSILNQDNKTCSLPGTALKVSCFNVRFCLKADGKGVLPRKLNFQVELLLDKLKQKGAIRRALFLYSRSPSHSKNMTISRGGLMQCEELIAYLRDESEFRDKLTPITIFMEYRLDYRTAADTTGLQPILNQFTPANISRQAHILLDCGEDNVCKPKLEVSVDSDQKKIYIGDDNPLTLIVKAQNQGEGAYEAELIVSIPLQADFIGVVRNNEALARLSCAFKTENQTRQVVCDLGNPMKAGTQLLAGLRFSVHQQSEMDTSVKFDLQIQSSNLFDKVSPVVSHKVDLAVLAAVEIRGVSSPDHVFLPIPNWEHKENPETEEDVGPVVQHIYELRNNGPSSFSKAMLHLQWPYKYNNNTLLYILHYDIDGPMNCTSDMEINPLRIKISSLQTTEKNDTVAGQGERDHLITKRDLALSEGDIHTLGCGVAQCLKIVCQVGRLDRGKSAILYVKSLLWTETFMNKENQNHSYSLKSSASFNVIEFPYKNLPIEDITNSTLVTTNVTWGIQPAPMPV", "sequence (P26012 43-684, chain 2 of 2, further chain)": "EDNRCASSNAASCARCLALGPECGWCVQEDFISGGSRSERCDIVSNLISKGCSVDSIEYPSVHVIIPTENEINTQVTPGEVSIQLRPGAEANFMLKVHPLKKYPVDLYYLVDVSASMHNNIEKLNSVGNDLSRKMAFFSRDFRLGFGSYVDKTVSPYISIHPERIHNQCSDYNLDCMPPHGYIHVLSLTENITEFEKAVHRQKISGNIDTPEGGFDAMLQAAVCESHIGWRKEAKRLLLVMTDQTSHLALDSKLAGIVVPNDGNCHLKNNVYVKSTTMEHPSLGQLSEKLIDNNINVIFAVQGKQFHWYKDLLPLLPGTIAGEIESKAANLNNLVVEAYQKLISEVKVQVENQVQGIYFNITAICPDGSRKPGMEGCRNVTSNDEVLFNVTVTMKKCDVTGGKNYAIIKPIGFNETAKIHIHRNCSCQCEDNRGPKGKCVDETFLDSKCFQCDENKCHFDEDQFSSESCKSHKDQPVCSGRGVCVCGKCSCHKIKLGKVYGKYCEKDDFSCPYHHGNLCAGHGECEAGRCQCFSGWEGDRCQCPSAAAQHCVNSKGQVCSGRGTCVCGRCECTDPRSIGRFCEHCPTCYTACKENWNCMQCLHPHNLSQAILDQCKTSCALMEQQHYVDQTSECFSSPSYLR", "details": "cited from earlier work"}, "[2]": {"biological_target": "integrin αvβ6 (Homo sapiens) (UniProt P06756)", "sequence (P06756 31-992, chain 1 of 2)": "as the sequence (P06756 31-992, chain 1 of 2) above", "sequence (P18564 22-709, chain 2 of 2, further chain)": "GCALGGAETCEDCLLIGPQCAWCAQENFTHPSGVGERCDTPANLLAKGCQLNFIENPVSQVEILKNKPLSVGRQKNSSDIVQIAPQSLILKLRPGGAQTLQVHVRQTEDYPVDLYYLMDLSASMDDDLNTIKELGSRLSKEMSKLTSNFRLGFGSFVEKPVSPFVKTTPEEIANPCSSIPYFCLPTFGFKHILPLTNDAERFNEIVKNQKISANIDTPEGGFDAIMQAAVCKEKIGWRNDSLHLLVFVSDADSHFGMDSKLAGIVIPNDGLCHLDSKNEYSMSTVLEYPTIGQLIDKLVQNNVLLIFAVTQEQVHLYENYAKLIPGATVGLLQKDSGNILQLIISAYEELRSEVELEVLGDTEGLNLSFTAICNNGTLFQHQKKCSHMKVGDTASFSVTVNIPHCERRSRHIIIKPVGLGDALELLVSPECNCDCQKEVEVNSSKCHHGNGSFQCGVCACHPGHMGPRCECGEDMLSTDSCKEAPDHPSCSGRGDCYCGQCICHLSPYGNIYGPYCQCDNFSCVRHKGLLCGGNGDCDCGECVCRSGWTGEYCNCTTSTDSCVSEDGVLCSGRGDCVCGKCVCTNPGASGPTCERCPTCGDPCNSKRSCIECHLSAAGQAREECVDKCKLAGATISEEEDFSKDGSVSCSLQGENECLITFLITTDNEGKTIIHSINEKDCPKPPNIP", "details": "cited from earlier work"}}, "note": "pKi: −log10 of the molar value.", "data": [{"substance": "chromogranin A-derived peptide 5 (from UniProt P10645)", "values": [{"measurement": "pKi", "setting": "[1]", "result": 8.49}, {"measurement": "pKi", "setting": "[2]", "result": 9.22}]}]}
